Measurements taken from patent publication US12540161B2, “Linkers” (BicycleTx Limited, priority 2020, dated 2026).

Key:
in vitro [1] = conditions: human, plasma, pH 7.4
Procedure: (§1) Pooled frozen plasma was thawed in a water bath at 37° C. Plasma was centrifuged at 4000 rpm for 5 min and the clots were removed if any. The pH will be adjusted to 7.4±0.1 if required. 1 mM stock solution was prepared with DMSO. Propantheline (positive control) was prepared by making a 100 μM working solution by diluting 5 μL of the stock solution (10 mM) with 495 μL ultra pure water. 100 μM working solutions of test compounds were made up by diluting 10 μL of the stock solution (1 mM) with 90 μL DMSO. 98 μL of blank plasma was spiked with 2 μL of dosing solution (100 μM) to achieve 2 μM of the final concentration in duplicate and samples were incubated at 37° C. in a water bath. At each time point (0, 1, 2, 4, 6 and 24 hr), 400 μL of 200 ng/mL tolbutamide and labetalol in 100% MeOH was added and mixed thoroughly to precipitate proteins. Sample plates were centrifuged at 4,000 rpm for 15 min. An aliquot of supernatant (150 μL) was transferred from each well before submitting for LC-MS/MS analysis.
(§2) The % remaining test compound after incubation in plasma was calculated using following equation: Remaining=100×(PAR at appointed incubation time/PAR at T0 time)
(§3) where PAR is the peak area ratio of analyte versus internal standard (IS).
(§4) The appointed incubation time points are T0 (0 hr), Tn (n=0, 1, 2, 4, 6, 24 hr). The half-life (T½) was calculated from a log linear plot of concentration versus time.
(§5) When the % remaining value at the maximal incubation time, which was 24 hr in this study, was higher than 75%, it is considered to be within the acceptable experimental variation.

in vitro [2] = conditions: rat, plasma
in vivo [3] = conditions: male, CD-1, mouse, plasma, intravenous
Procedure: Male CD-1 mice were dosed with each Bicycle Conjugate formulated in 25 mM histidine HCl, 10% sucrose pH 7 via tail vein injection. Serial bleeding (about 80 μL blood/time point) was performed via submadibular or saphenous vein at each time point. All blood samples were immediately transferred into prechilled microcentrifuge tubes containing 2 μL K2-EDTA (0.5M) as anti-coagulant and placed on wet ice. Blood samples were immediately processed for plasma by centrifugation at approximately 4° C., 3000 g. The precipitant including internal standard (350 μL) was immediately added into the 35 μL plasma sample, mixed well and centrifuged at 3220 g, 4° C. for 15 minutes. The supernatant was transferred into pre-labeled polypropylene microcentrifuge tubes, and then quick-frozen over dry ice. The samples were stored at 70° C. or below as needed until analysis. Supernatant samples were mixed with 50 μL water, vortexed well and centrifuged at 3220 g, 4° C. for 15 minutes. A sample of the supernatant was injected for LC-MS/MS analysis using an Acquity UPLC with AB Sciex 6500+ Triple Quad MS in positive ion mode to determine the concentrations of Bicycle Conjugate and released payload. Plasma concentration versus time data were analyzed by non-compartmental approaches using the Phoenix WinNonlin 6.3 software program. C0, Cl, Vdss, T1/2, AUC(0-inf), MRT(0-last), MRT(0-inf) nd graphs of plasma concentration versus time profile were reported.

HT1080 cells = conditions: 1 mg/kg and 3 mg/kg
Procedure: For Cell-Derived Xenograft (CDX) models, mice (balb/c nude, female, 18-23 g at study start) were inoculated with HT1080 cells (5.0×10^6 cells/mouse in 0.2 ml PBS to the right flank). Animals were randomized when the average tumour volume reached the pre-designated start size. Group size is n=4. All studies included a vehicle-treated control.
Dosing was conducted by intravenous bolus. Tumor volume was measured in two dimensions using a caliper, and the volume was expressed in mm^3 using the formula: V=0.5 a×b^2 where a and b are the long and short diameters of the tumor, respectively.

in vitro [4] = conditions: human, plasma
in vivo [5] = conditions: rat, plasma
in vitro [6] = conditions: rat, plasma, pH 7.4
Procedure: as §1, §2, §3, §4, §5

Q: For CC[C@H](C)[C@@H]([C@@H](CC(=O)N1CCC[C@H]1[C@H](OC)[C@@H](C)C(=O)N[C@H](C)[C@@H](O)c1ccccc1)OC)N(C)C(=O)[C@@H](NC(=O)[C@H](C(C)C)N(C)C(=O)OCc1ccc(NC(=O)[C@H](CCCNC(N)=O)NC(=O)[C@H](Cc2cccc3ccccc23)NC(=O)[C@H](CCC(=O)O)NC(=O)Cn2cc(CCC(=O)NCCC(=O)N(C)CC(=O)N(C)CC(=O)N(C)CC(=O)N(C)CC(=O)N(C)CC(=O)N(C)CC(=O)N(C)CC(=O)N(C)CC(=O)N(C)CC(=O)N(C)CC(=O)N[C@@H](C)C(=O)N[C@H]3CN(C)Cc4cc5cc(c4)CN(C)C[C@@H](C(N)=O)NC(=O)[C@H](C(C)(C)C)NC(=O)[C@H](CC(=O)O)NC(=O)[C@H](Cc4ccc(O)cc4)NC(=O)[C@H](Cc4ccccc4)NC(=O)[C@H](CC(=O)O)NC(=O)[C@H](CCC(=O)O)NC(=O)[C@H](CSC5)NC(=O)[C@@H](C)NC(=O)[C@H](Cc4cccc5ccccc45)NC(=O)[C@H](CCC(=O)O)NC(=O)[C@H](CC(N)=O)NC(=O)[C@@H](C)NC3=O)nn2)cc1)C(C)C [BCY10984, MMAE-PAB-(Cit-1Nal-Glu)-BCY3900], which half-life at 2 μM (in vitro [1]) is on record?
A: The half-life at 2 μM was over 57.8 h.

Q: What about the fraction unbound (in vitro [2]; PPB (% Unbound), rat (Table 9)) of the same compound?
A: Its fraction unbound is 0.04.

Q: And the fraction unbound (in vitro [2]; Plasma protein binding (% Unbound) Rat)?
A: The fraction unbound was 0.035.

Q: What about the C0 (in vivo [3]) of the same compound?
A: The C0 was 112 µg/mL.

Q: What about the Vd (in vivo [3]) of the same compound?
A: Its Vd is 0.09 L/kg.

Q: What about the clearance (in vivo [3]) of the same compound?
A: Its clearance is 0.2 mL/min/kg.

Q: What about the half-life (in vivo [3]) of the same compound?
A: The half-life was 7.55 h.

Q: What about the “Body weights of the animals” value (HT1080 cells) of the same compound?
A: Its value is “not affected”.

Q: What about the fraction unbound (in vitro [4]) of the same compound?
A: The fraction unbound was 0.031.

Q: And the half-life (in vivo [5])?
A: The half-life was 1.83 h.

Q: What about the half-life at 2 μM (in vitro [6]) of the same compound?
A: Its half-life at 2 μM is 53.8 h.
